Measured values taken from IntAct's records for PubMed 22101932.

B1: Coiled-coil quantitatively-enriched protein 1 (Schizosaccharomyces pombe (strain ATCC 38366 / 972)), Q10432 (parent)
chain: MSEINDFTNSIIINESDTKYEVYSEVNSSNRWIAKEDCPSPLEDVWLLKLAGHKRKLEEPLSCMRNEEPASKQREIEKFLRTDLDHSENDFLTQEVDEFPSTQQLFPIPLQNDTAFDSSEESITKSSKSSFSVLDIGLPMSALQRKMMHRLVQYFAFCIDHFCTGPSDSRIQEKIRLFIQSAHNIAKHPSLYDTEVRNPSAAESTNSHVSLDASNFSSYAENSSKFLFLQELFKNLSPSYSKTFFLFISNQFLANTLTQWLKSQNIDAELWAEEDAKTSQHPAIWICVSKKAPSASHFLQSCPDLSATIFYDIEAYMSVTSSLPSIQSLVLRLIHLGSIEHAIKCFQSSYNASFLVNIVGVVATLSSSSEENSEASNLSTLFEKSGNFEEILGSESHSSITEKTRDIAKNVATWLKNGENFSSWPLPPLMDLASLSVAEPRDSQPSVSQVNDTFVKSSDSTFPSSQSMQSPSKLHSLTSNATDLLSSSSLKKNFFSQQEADEVELSNNYDLQGAAVQYLQRRLRMVEDELHEAINSKNVQQSRSEELEQQISKLTDNLQEYRNTVRELKLDLEKSKKKNEDLSKLEVEKVEEIANLKKELTHLAKQQEFGFKYVQEFSNEDLQGKLIEANEKNYKLTQLLKTQKEDADFITNQYQNASTFAAEQSKEVAKLQAECKRLQAINSKVMEEVKVYNDSRVEALLAKVSSLEETLKILEQKSLPKFTPHNQSPRIIDSN
partner: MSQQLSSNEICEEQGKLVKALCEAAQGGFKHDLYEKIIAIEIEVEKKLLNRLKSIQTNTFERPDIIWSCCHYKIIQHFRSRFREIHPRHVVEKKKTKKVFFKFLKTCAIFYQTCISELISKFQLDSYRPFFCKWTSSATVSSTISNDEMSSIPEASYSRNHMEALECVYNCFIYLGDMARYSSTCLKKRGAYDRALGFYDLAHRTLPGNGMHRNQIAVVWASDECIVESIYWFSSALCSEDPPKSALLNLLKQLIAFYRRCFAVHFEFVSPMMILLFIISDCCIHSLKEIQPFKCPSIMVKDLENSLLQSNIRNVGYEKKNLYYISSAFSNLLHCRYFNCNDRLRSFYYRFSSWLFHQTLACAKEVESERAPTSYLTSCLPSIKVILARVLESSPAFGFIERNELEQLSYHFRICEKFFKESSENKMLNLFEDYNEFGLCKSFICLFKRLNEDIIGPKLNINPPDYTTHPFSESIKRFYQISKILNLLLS
B2: Telomere elongation protein est1 (Schizosaccharomyces pombe (strain ATCC 38366 / 972)), O74804 (parent)
chain: B1 partner
partner: B1 chain

Variants of: B1
Conditions: with est1_schpo est1, O74804

| Variant | effect of a mutation on the interaction |
| --- | --- |
| T93D | disrupting interaction strength |
| T93A | disrupting interaction strength |

The next lines start with the values.

| effect of a mutation on the interaction | Variant |
| --- | --- |
| disrupting interaction strength | T93E |
| disrupting interaction | Q94A |

Variants of: B1
Conditions: with est1_schpo est1, O74804
Remark: another data set of the same source

| effect of a mutation on the interaction | Variant |
| --- | --- |
| disrupting interaction | T93D |
| decreasing interaction | Q94A |

Variants of: B2
Conditions: with ccq1_schpo ccq1, Q10432

| effect of a mutation on the interaction | Variant |
| --- | --- |
| disrupting interaction | R180A |
| disrupting interaction | R79A |
| disrupting interaction | R79A;R180A |

Variants of: B2
Conditions: with ccq1_schpo ccq1, Q10432
Remark: another data set of the same source

| effect of a mutation on the interaction | Variant |
| --- | --- |
| decreasing interaction | K73A |
| decreasing interaction | R79A |
